# ± gives the standard deviation of the averaged measurements.
# System: ATP
# Experiment: switch fluorescence ratio, 500 uM ATP over buffer (Cy3 cluster intensity, sum of 5 cycles each) (fold (ratio)); higher = stronger signal-on switching upon ATP binding; sequences stand for … in TCGTCGGCAGCGTCAGATGTGTATAAGAGACAGTTTTTTTTTTTTTTTTTTTTTTTTT…TC
# Details: aptamer strand: ATP DNA aptamer (quencher-CACCTGGGGGAGTATTGCGGAGGAAGG + anchor), 100 nM annealed; ATP concentration: 500 uM
# Outline: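 After annealing to 100 nM quencher-labelled ATP aptamer, Cy3-labelled switching-strand clusters on a modified Illumina MiSeq flow-cell were imaged in selection buffer. A second image followed after 15 min with 500 uM ATP at 22 °C, and five such buffer/ATP cycles were done, each separated by NaOH stripping and re-annealing. The fluorescence ratio, averaged per switch-domain sequence, is summed target-cycle over summed buffer-cycle Cy3 intensity per cluster, with clusters outside 100-1000 RFU excluded.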
# 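Also: ATP exposure 15 min at 22 °C before imaging.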
row,Sequence,switch fluorescence ratio
1,TTGGGTTCCC,1.01 ± 0.05
2,TTGGGTTGCG,0.964 ± 0.035
3,TTGGGTTGGA,0.996 ± 0.017
4,TTGGGTTTAC,1.02 ± 0.049
5,TTGGGTTTCA,0.995 ± 0.053
6,TTGGTACTGA,1.04 ± 0.049
7,TTGGTAGATT,0.984 ± 0.047
8,TTGGTAGGTG,1.04 ± 0.058
9,TTGGTCAAAT,1.04 ± 0.022
10,TTGGTCAAGG,0.995 ± 0.045
11,TTGGTCGCGG,0.97078 ± 5.7e-05
12,TTGGTCGGGT,1.02 ± 0.024
13,TTGGTCTATG,0.986 ± 0.027
14,TTGGTCTTTT,0.976 ± 0.012
15,TTGGTGACGC,1.01 ± 0.026
16,TTGGTGATGT,0.994 ± 0.044
17,TTGGTGGCGT,0.995 ± 0.01
18,TTGGTGGGAA,1 ± 0.025
19,TTGGTGGTTG,0.993 ± 0.029
20,TTGGTGTAAG,1.0001 ± 0.00079
21,TTGGTGTCAG,1.02 ± 0.018
22,TTGGTGTCGG,0.974 ± 0.036
23,TTGGTGTTCT,1.08 ± 0.039
24,TTGGTTACAC,1.006 ± 0.0013
25,TTGGTTACAT,0.994 ± 0.013
26,TTGGTTGTAA,1.03 ± 0.059

row,Sequence,switch fluorescence ratio
1,TTGGTTTGAG,1.016 ± 0.0031
2,TTGGTTTGTT,0.982 ± 0.018
3,TTGGTTTTAT,1.02 ± 0.014
4,TTGGTTTTTG,1 ± 0.037
5,TTGTAAAATA,0.978 ± 0.058
6,TTGTAAATGA,1.02 ± 0.015
7,TTGTAAGATC,1.02 ± 0.029
8,TTGTAAGGGG,1.009 ± 0.0031
9,TTGTAAGTT,0.99664 ± 0.00012
10,TTGTAATTCT,1.167 ± 0.0018
11,TTGTACCATA,1.1 ± 0.071
12,TTGTAGAATG,0.9821 ± 0.0066
13,TTGTAGCACG,1.07 ± 0.037
14,TTGTAGGGCC,1.03 ± 0.022
15,TTGTAGTCGG,1 ± 0.053
16,TTGTATAAA,1 ± 0.022
17,TTGTATACCT,1.17 ± 0.02
18,TTGTATAGGA,0.998 ± 0.029
19,TTGTATGAGT,0.986 ± 0.025
20,TTGTATGGGG,0.984 ± 0.033
21,TTGTATGTAC,1.22 ± 0.13
22,TTGTATGTCT,0.991 ± 0.044
23,TTGTATTAGT,0.9835 ± 0.0093
24,TTGTATTCGG,1 ± 0.03
25,TTGTATTTGT,0.999 ± 0.031
26,TTGTCAGCGT,0.997 ± 0.012

row,Sequence,switch fluorescence ratio
1,TTGTCCGAGC,1.06 ± 0.023
2,TTGTCCGTAG,1.0583 ± 0.00024
3,TTGTCCTTTG,0.993 ± 0.013
4,TTGTCTGTCC,0.98 ± 0.018
5,TTGTGAACTT,0.9794 ± 0.0046
6,TTGTGAATAT,1 ± 0.044
7,TTGTGAGCAA,1.33 ± 0.11
8,TTGTGAGGGA,0.9946 ± 0.0034
9,TTGTGAGTCT,1.01 ± 0.011
10,TTGTGATCGG,0.978 ± 0.03
11,TTGTGATTTT,1.02 ± 0.048
12,TTGTGGAACG,0.989 ± 0.019
13,TTGTGGAGAA,1.04 ± 0.072
14,TTGTGGATTA,1 ± 0.027
15,TTGTGGCCGG,0.978 ± 0.045
16,TTGTGGCGGA,1.0229 ± 0.00038
17,TTGTGGCTGG,0.96 ± 0.035
18,TTGTGGGGTC,1 ± 0.036
19,TTGTGGGTAT,0.954 ± 0.013
20,TTGTGGGTTT,1.05 ± 0.2
21,TTGTGGTAAG,0.992 ± 0.022
22,TTGTGGTCCT,0.974 ± 0.029
23,TTGTGGTCGG,0.982 ± 0.036
24,TTGTGTAAGC,1.01 ± 0.038
25,TTGTGTAGCT,1.02 ± 0.0057
26,TTGTGTATTT,1.001 ± 0.0098

row,Sequence,switch fluorescence ratio
1,TTGTGTCGCT,1.0031 ± 0.0004
2,TTGTGTGGGA,1.02 ± 0.026
3,TTGTGTGGGG,1.01 ± 0.034
4,TTGTGTTTGT,1 ± 0.03
5,TTGTTAAGGC,1.02 ± 0.037
6,TTGTTAATCG,0.984 ± 0.011
7,TTGTTAGTCA,1.0317 ± 4.4e-05
8,TTGTTAGTTA,1.01 ± 0.015
9,TTGTTATCGG,1.04 ± 0.04
10,TTGTTATGCG,0.995 ± 0.012
11,TTGTTATGGC,0.9795 ± 0.0059
12,TTGTTATGGT,1 ± 0.025
13,TTGTTATTTA,0.9903 ± 0.0019
14,TTGTTCCAAT,0.989 ± 0.012
15,TTGTTCGGAG,1.0006 ± 0.00036
16,TTGTTCGGTT,0.998 ± 0.024
17,TTGTTCTTTT,1.07 ± 0.077
18,TTGTTGAATT,0.98 ± 0.042
19,TTGTTGATGC,1.14 ± 0.021
20,TTGTTGGCCG,0.9637 ± 0.0078
21,TTGTTTAAAA,1.01 ± 0.049
22,TTGTTTAAAG,0.9764 ± 0.0021
23,TTGTTTAACG,0.99757 ± 0.00042
24,TTGTTTACCC,0.9713 ± 0.0036
25,TTGTTTATAA,1.02 ± 0.083
26,TTGTTTATCA,0.9865 ± 0.0096

row,Sequence,switch fluorescence ratio
1,TTGTTTCGTT,0.9804 ± 0.0073
2,TTGTTTCTCT,0.959 ± 0.016
3,TTGTTTGATG,1.01 ± 0.011
4,TTGTTTGCGA,0.999 ± 0.01
5,TTGTTTGGAT,1.01 ± 0.05
6,TTGTTTGGCA,0.991 ± 0.025
7,TTGTTTGTAG,1.03 ± 0.052
8,TTGTTTGTTT,0.997 ± 0.035
9,TTGTTTTCCG,1.02 ± 0.014
10,TTGTTTTCGC,1.04 ± 0.046
11,TTGTTTTGAG,0.994 ± 0.013
12,TTGTTTTGTA,0.992 ± 0.024
13,TTGTTTTTAT,0.992 ± 0.03
14,TTTAAAACTT,2.03 ± 1.4
15,TTTAAAAGCT,1.07 ± 0.038
16,TTTAAAAGGC,1.01 ± 0.028
17,TTTAAAAGTC,1.07 ± 0.086
18,TTTAAAATGT,1.12 ± 0.25
19,TTTAAAATTA,0.9978 ± 0.0042
20,TTTAAAATTT,1.01 ± 0.041
21,TTTAAACGGT,1.03 ± 0.042
22,TTTAAAGA,0.991 ± 0.01
23,TTTAAAGCGC,1.02 ± 0.043
24,TTTAAAGCTT,1.01 ± 0.032
25,TTTAAATAGC,0.9742 ± 0.00053
26,TTTAAATTG,1 ± 0.05

row,Sequence,switch fluorescence ratio
1,TTTAAATTTG,1.018 ± 0.0054
2,TTTAACAGGT,1.03 ± 0.023
3,TTTAACATCA,0.984 ± 0.047
4,TTTAACTAGC,1.034 ± 0.0063
5,TTTAAGACAC,1.03 ± 0.022
6,TTTAAGAGCT,0.997 ± 0.015
7,TTTAAGCACG,1.09 ± 0.041
8,TTTAAGCGAT,1.03 ± 0.015
9,TTTAAGCTGG,0.99 ± 0.017
10,TTTAAGGAGG,1.03 ± 0.071
11,TTTAAGGGGA,0.996 ± 0.013
12,TTTAAGGTAG,0.993 ± 0.018
13,TTTAAGGTAT,0.957 ± 0.023
14,TTTAAGGTTT,0.998 ± 0.013
15,TTTAAGTCGT,0.974 ± 0.025
16,TTTAAGTGGG,1.04 ± 0.14
17,TTTAAGTTGG,0.983 ± 0.013
18,TTTAATGAGC,0.995 ± 0.014
19,TTTAATGCG,1.01 ± 0.025
20,TTTAATGGGG,1.02 ± 0.035
21,TTTAATGTGG,0.999 ± 0.03
22,TTTAATTAT,0.99 ± 0.034
23,TTTAATTCGC,1.1 ± 0.056
